Series [1] deals with T1, FAR-RXRalpha heterodimer (Rattus norvegicus (FAR) / Homo sapiens …, UniProt Q62735;P19793 Q62735:1-469,P19793:1-462). Kind of series: EMSA; half-site substitutions abolish binding. As to conditions: tags: rabbit reticulocyte lysate TNT, Promega; label: 32P (Klenow). The protocol:
(§1) It was next sought to determine the DNA binding properties of the FAR-RXRα complex. Because FAR and EcR share 100% sequence identity in the DNA recognition helix (P-box, Cys^141-Lys^145), it was examined whether the FAR-RXRα complex could recognize the hsp27 […] (EcRE; Yao et al., *Cell* 71:63–72 (1992)). Electrophoretic mobility shift analysis was performed using [^32P]-labeled DNA and in vitro translated FAR and RXRα. Proteins used in electrophoretic mobility shift assays were prepared by translation in a rabbit reticulocyte lysate system (TNT, Promega). Proteins (1 µl) were incubated for 20 minutes at room temperature with 100,000 cpm of Klenow-labeled probes in 10 mM Tris pH 8, 100 mM KCl, 6% glycerol, 0.05% NP-40, 1 mM DTT, 100 ng/µl poly dI dC and then electrophoresed through a 5% polyacrylamide gel in 0.5×TBE. The gel was autoradiographed for 1.5 hours with an intensifying screen.
In general terms: A gel shift assay detects complexes by their altered migration in electrophoresis.

The target of series [2] is T1, FAR-RXRalpha heterodimer. Kind of series: EMSA; cooperative binding. As to conditions: tags: rabbit reticulocyte lysate TNT, Promega; label: 32P (Klenow). How it is done: as §1
Series [3] has as its target RXRalpha (UniProt P19793 P19793:1-462). Description: EMSA; RXRalpha alone, no high affinity binding. The following applies: tags: rabbit reticulocyte lysate TNT, Promega; GenBank X52773 cited for human RXRalpha; label: 32P (Klenow). How it is done:
as §1

The target in series [4] is T1, FAR-RXRalpha heterodimer. Description: EMSA; mutated element not recognized. As to conditions: tags: rabbit reticulocyte lysate TNT, Promega; label: 32P (Klenow). The protocol:
as §1

For series [5], the target named is T1, FAR-RXRalpha heterodimer. Kind of series: cell_activity; 50 uM JH III; 76-fold with 100 nM LG69, 212-fold with both; parental MTV reporter lacking EcREs not activated by JH III. The following applies: tags: CMV expression vectors in CV-1 cells. The protocol:
Thus, with reference to FIG. 5A, CV-1 cells were transiently transfected with hsp27-EcRE×5 MTV-luciferase alone (−) or with expression vectors for rat FAR and/or human RXRα. Reporter activity was assayed after treating cells with or without 50 µM JH III.

T1 sequence (Q62735 whole entry, chain 1 of 2): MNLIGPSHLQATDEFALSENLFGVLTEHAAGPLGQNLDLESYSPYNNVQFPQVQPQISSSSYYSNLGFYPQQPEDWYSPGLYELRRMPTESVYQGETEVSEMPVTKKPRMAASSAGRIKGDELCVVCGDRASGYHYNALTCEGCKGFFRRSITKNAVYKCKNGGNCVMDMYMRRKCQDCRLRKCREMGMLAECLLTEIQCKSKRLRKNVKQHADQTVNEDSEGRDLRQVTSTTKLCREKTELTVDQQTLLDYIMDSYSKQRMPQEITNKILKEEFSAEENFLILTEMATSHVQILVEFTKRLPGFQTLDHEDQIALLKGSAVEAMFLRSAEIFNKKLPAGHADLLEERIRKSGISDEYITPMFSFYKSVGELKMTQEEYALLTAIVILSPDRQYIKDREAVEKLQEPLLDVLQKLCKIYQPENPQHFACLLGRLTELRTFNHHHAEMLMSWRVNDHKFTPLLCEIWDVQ
T1 sequence (P19793 whole entry, chain 2 of 2): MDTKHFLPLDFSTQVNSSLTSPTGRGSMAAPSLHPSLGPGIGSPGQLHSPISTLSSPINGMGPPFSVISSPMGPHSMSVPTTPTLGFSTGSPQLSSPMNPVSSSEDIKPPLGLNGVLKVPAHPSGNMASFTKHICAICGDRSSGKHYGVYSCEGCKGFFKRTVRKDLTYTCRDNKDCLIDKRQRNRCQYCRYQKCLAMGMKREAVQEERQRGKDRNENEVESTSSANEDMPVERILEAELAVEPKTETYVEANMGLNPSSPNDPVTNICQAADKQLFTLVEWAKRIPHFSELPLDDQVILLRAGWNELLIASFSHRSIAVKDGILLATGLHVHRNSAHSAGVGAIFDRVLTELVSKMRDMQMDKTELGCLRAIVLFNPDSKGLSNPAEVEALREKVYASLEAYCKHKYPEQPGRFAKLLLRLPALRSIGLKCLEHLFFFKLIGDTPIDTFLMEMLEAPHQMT
Sequence of RXRalpha (P19793 whole entry, one chain of several): as the sequence (P19793 whole entry, chain 2 of 2) above

B1: IR1m (dsDNA)
DNA 1: AGAACAATGTTCT
DNA 2: AGAACATTGTTCT
For the molecule B1, the binding result in series [1] was “no binding”.

B2: idealized IR1 (dsDNA)
DNA 1: AGGTCAATGACCT
DNA 2: AGGTCATTGACCT
On to B2, for which, in series [2], the binding result is recorded as “binds”.

B3: hsp27-EcRE (dsDNA)
DNA 1: GGTTCAATGCACT
DNA 2: AGTGCATTGAACC
With B3, the binding result in series [3] is “no binding”.

B4: EcREm (mutated hsp27-EcRE) (dsDNA)
DNA 1: CGTTCAATGCACA
DNA 2: TGTGCATTGAACG
B4: the binding result in series [4] is “no binding”.

B5: hsp27-EcRE x5 MTV-luciferase reporter (dsDNA)
DNA 1: GGTTCAATGCACT
DNA 2: AGTGCATTGAACC
Consider B5, for which, in series [5], the activity was 17 fold activation.

Values taken from patent US6005086, “Farnesoid activated receptor polypeptides, and nucleic acid encoding the same” (The Salk Institute for Biological Studies).
